The values that follow come from PMC10130748 (Life Science Alliance, 2023).

The experiment deals with T1, CD62P (P-selectin) lectin domain (residues 1–117), wild type.
T1 construct: CD62P (P-selectin) C-type lectin domain, residues 1-117; cDNA chemically synthesized, BamHI/EcoRI site of pET28a; also called CD62P lectin domain; C-type lectin domain of CD62P; not shown: His tag from pET28a ([residues removed]), N-terminal, kept
T1 chain: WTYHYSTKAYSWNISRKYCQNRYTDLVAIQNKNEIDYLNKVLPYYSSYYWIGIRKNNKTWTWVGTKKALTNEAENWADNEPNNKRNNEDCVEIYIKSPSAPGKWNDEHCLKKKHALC
Kind of experiment: ELISA; wells coated with the CD62P lectin domain (20 μg/ml), blocked with BSA; site 2 peptides fused to GST (100 μg/ml); bound GST detected with HRP-conjugated anti-GST. The following applies: both partners purified.

Positions of bridges follow the written chain, without caps; N, C: chain ends. No end group written: not given here.

B1: cyclic site 2 peptide of integrin β1 (residues 268–295, C281S) fused to GST (peptide)
chain: CKLGGIVLPNDGQSHLENNMYTMSHYYC
modifications: disulfide 1-28 (inferred); also: fused to GST
notes: also called cyclic site 2 peptide from β1; site 2 peptide from β1
For B1, the binding result is “binds”.

B2: cyclic site 2 peptide of integrin β3 (residues 260–288, C273S) fused to GST (peptide)
chain: CRLAGIVQPNDGQSHVGSDNHYSASTTMC
modifications: disulfide 1-29 (inferred); also: fused to GST
notes: also called cyclic site 2 peptide from β3; site 2 peptide of β3
Consider B2, for which the binding result is “binds”.
